# T1: cyclo(CGHHQKG) (SEQ ID NO: 12) conjugated to BSA
# T1 sequence (peptide, cyclic peptide, cyclo(CGHHQKG); conjugated to BSA): CGHHQKG
# T2: linear CGHHQKG (SEQ ID NO: 12) conjugated to BSA
# T2 sequence (peptide, linear (not cyclized); conjugated to BSA): CGHHQKG
# B1: 301-3 (antibody, part only; not given: Light chain, two candidates, IgG3, V domains shown, part only)
# VH: EVQLVESGGGLVKPGGSLKLSCAASGFTFSDYYMYWVRQTPEKRLEWVATISDGGSYTSYPDSVKGRFTISRDSAKNNLYLQMSSLKSEDTAMYYCARDYYGSNSYTSGFAYWGQGTLVTVSA
# Assays:
# [1] = biological target: A-beta42 Oligomer (synthetic, prepared in F12 medium) (human); assay: SPR (MASS-1) direct binding; hybridoma culture supernatant over immobilized A-beta42 oligomer
# A-beta42 Oligomer (synthetic, prepared in F12 medium) (human), sequence (peptide, as listed by the source): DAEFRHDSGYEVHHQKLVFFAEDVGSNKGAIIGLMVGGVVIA
# A-beta42 Monomer (human) [2] = assay: SPR (MASS-1) direct binding; hybridoma culture supernatant over immobilized A-beta42 monomer
# A-beta42 Monomer (human), sequence (peptide, as listed by the source): as above
# [3] = biological target: commercially-prepared stable A-beta42 Oligomers (SynAging SAS) (human); assay: SPR; antibody covalently immobilized, stable A-beta42 oligomers (1 microM) injected
# commercially-prepared stable A-beta42 Oligomers (SynAging SAS) (human), sequence (peptide, as listed by the source): as above
# [4] = biological target: A-beta42 Oligomer (synthetic, prepared in F12 medium) (human); assay: SPR; purified antibody immobilized, A-beta preparation flowed over
# A-beta42 Monomer (human) [5] = assay: as above
# [6] = biological target: T1, cyclo(CGHHQKG) (SEQ ID NO: 12) conjugated to BSA; assay: SPR (MASS-1) direct binding; hybridoma culture supernatant over immobilized BSA-conjugated peptide
# [7] = biological target: T2, linear CGHHQKG (SEQ ID NO: 12) conjugated to BSA; assay: as above
binder,measurement,setting,value
B1,binding response (RU),[1],56.8 RU
same,binding response (RU),A-beta42 Monomer (human) [2],-1.8 RU
same,"binding response units (BRUs), average",[3],14.5 BRU
same,binding response (RU),[4],15.5 RU
same,binding response (RU),A-beta42 Monomer (human) [5],-23.8 RU
same,binding response (RU),[6],469 RU
same,binding response (RU),[7],60.6 RU
